# Measurements from patent US20260258115A1 (MAPP BIOPHARMACEUTICAL, published 2026).
# B1: ADI-41828 (antibody, V domains shown)
# VH: EVQLVESGGGLVQPGGSLRLSCADSDFTFSTYSMNWVRQAPGKGLEWISYITGRSSAIYYADSVKGRFTISRDNAKNSLFLQMNSLRAEDTAVYYCTTFMAGYSFGHGDAFDIWGQGTTVTVSS
# VL: SYELTQPPSVSVAPGQTARITCGGNNIGSKSVHWYQQKPGQAPVLVVYDDSDRPSGIPERFSGSNSGNTATLTISRVEAGDEADYYCQVWNSNSDHPHWVFGGGTQLTVL
# B2: ADI-41835 (antibody, V domains shown)
# VH: EVQLLESGGGLVQPGGSLRLSCAASGFTFSSYAMNWVRQAPGKGLEWVSIISDSGGSTYYADSVKGRFTISRDNSKNTLYLQMNSLRAEDTAVYYCAKATPLKWELLIGSTPGYYFDYWGQGTTVTVSS
# VL: SYELTQLPSVSVSPGQTASITCSGDKLGDKYACWYQQKPGQSPVVIMYQDNKRPSGIPERFSGSNSGNTATLTISGTQAMDEADYYCQAWDSSTGVFGGGTKVTVL
# B3: ADI-41840 (antibody, V domains shown)
# VH: QVQLVQSGAEVKKPGSSVKVSCKASGDTFSGYAIYWVRQAPGRGLELMGGIIPILGTSSYAQRFLGRTSFTADESTSTAYMDLSSLTSADTAMYYCARKRVTVPVPFDSWGQGTLVTVSS
# VL: EIVMTQSPATLSVSPGERATLSCRASQSVSSNLAWYQQKLGQAPRLLIYGASTRATDIPARFSGSGSGTEFTLTISSLQSEDFVVYYCQQYNNWPWTFGQGTKVEIK
# B4: ADI-43640 (antibody, V domains shown)
# VH: QVQLVQSGGGLVKPGGSLRLSCAASGFTFSSYSMNWVRQAPGKGLEWVSSISSSSSYIYYADSVKGRFTISRDNAKNSLYLQMNSLRAEDTAVYYCAREGRDGYNYNFDYWGQGTLVTVSS
# VL: QSVVTQPPSVSGAPGQRVTISCTGSSSNIGAGYDVHWYQQLPGTAPKLLIYGNSNRPSGVPDRFSGSKSGTSASLAITGLQAEDEADYYCQSYDSSLSGVVFGGGTKLTVL
# B5: ADI-21064 (antibody, V domains shown)
# VH: EVQLVESGGEVKKPGASVKVSCKASGYIFSNHGVSWVRQAPGQGLEWMGWISAYNGNAIYAQNLQGRVTLTTDTSTSTAYMELTSLTSDDTAIYYCARESGATAAAVMDYWGQGTLVTVSS
# VL: DIVLTQTPLSLPVILGQPASISCRSSQSLVYSDGNTYLTWFQQRPGQSPRRLIYKVSNRDSGVPDRFSGSGSDTDFTLKISRVEAEDVGVYYCMQGIDWPRTFGQGTKVDIK
# B6: ADI-21072 (antibody, V domains shown)
# VH: QVQLVQSGGGLVKPGGSLRLSCEASGFNFRSYHMSWVRQAPGKGLEWVSSITAGSSYINYADSVKGRFTISRDNAKNSVFLQMNSLSAEDTAVYYCAREGLNMGVGGTWFDPWGQGTLVTVSS
# VL: QAVVTQEPSVSGAPGQRVTISCTGSSSNIGAGYDVHWYQQLPGTAPKLLIYGNNNRPSGVPDRFSGSKSATSASLAITGLQADDEADYYCQSYDRSLSGSWVFGTGTKVTVL
# B7: ADI-21075 (antibody, V domains shown)
# VH: EVQLVESGGGLVKPGGSLRLSCAASGFSFSNYYMSWVRQAPGKGLEWISYISGGSTYANLADSVKGRFTISRDNTKNSMYLQMTSLRPDDTAVYYCARIHGTHGPFYFDYWGQGTLVTVSS
# VL: QSVLTQPPSVSGAPGQRVTISCTGSSSNIGAGYDVHWYQQLPGTAPKLLIHANSNRPSGVPDRFSGSKSGTSASLAITGLQAEDEADYYCQSYDNSLNAYYVFGTGTKLTVL
# notes: also called Ab 320
# B8: ADI-21077 (antibody, V domains shown)
# VH: QVQLVESGGGLVKPGGSLRLSCVVSGFTFRDYYMSWIRQAPGKGLEWISYISPSSTYTNYADSVRGRFTISRDNAENSLYLQMNSLRAEDTAVYYCARVNIAATGAGGVFLDYWGQGTTVTVSS
# VL: QPVLTQPPSVSGAPGQRVTISCAGSSSNIGAGYDVHWYQQLPGTAPKLLIYGNINRPSGVPDRFSGSKSGTSASLAITGLQAEDEADYYCQSYDSSLSGSYVFGTGTKVTVL
# B9: ADI-21079 (antibody, V domains shown)
# VH: EVQLLESGGGLVKPGGSLRLSCAASGFTFSDYYMSWIRQAPGKGLEWVSNISGGSTYTNYADSVKGRFTISRDNAKNSLYLQMNSLRAEDTAVYYCAREAYGSGNYYNPNWLDPWGQGTLVTVSS
# VL: QSVLTQPPSVSGAPGQRVTISCTGSSSNIGAGYDVHWYQQLPGTAPKLLIYGNRNRPSGVPDRFSGSKSGTSASLAITGLQAEDEADYYCQSYDSSLSGSVFGGGTKLTVL
# B10: ADI-21081 (antibody, V domains shown)
# VH: EVQLLESGGGLVKPGGSLRLSCAASRFAFSNYYMTWIRQAPGKGLEWISNISGGSTFTNYADSVKGRFTISRDNAKNSVHLQMNSLRAEDTAVYYCVREASVAAGTPEGFDIWGQGTMVTVSS
# VL: QSVLTQPPSVSGAPGQRVIISCTGSSSNIGAGYDVNWYQQLPGTAPKLLMYGNRNRASGVPDRFSGSKSGTSASLAITGLQAEDEADYYCHSYDSSLGGSVFGGGTKLTVL
# notes: also called Ab 326
# B11: ADI-21082 (antibody, V domains shown)
# VH: EVQLVESGGGLVKPGGSLKLSCVASGLKFSSYSMNWVRQAPGKGLEWVSSVSAGSSYTNYADSVKGRFTISRDNAKNSLYLQMNSLRVDDTAVYYCATERCSGGSCYLHGFDPWGQGTTVTVSS
# VL: QSVLTQPPSVSGAPGQRVTISCTGSSSNIGAGYDVHWYQQLPGTAPKLLIFDNIIRPSGVPDRFSGSKSGTSASLAITGLQADDEADYYCQSYDKSGDYVFGTGTKVTVL
# B12: ADI-21086 (antibody, V domains shown)
# VH: EVQLVETGGGLVKPGGSLRLSCAASPFAFSNYYMSWIRQAPGKGLEWISNISGGSTFTNYADSVKGRFTISRDNARNSLYLLMNNLRTEDTAVYYCAREASVAAGTPEGFDVWGQGTTVTVSS
# VL: QSVVTQPPSVSGAPGQRVTISCTGSSSNIGAGYDVNWYQQFPGTAPKLLIYGNRNRPSGVPARFSGSKSGASASLAITGLQAEDEADYYCHSYDSGLSGSVFGGGTKLTVL
# B13: ADI-21089 (antibody, V domains shown)
# VH: EVQLLESGGGLVKPGGSLRLSCVASGFRFTSYSMNWVRQAPGKGLEWVSSISASSSYVDYADSLKGRFTISRDNAQNSLFLQMNSLRAEDTAVYYCARDYYDSGNYHSPFPMDVWGQGTTVTVSS
# VL: QSVLTQPPSVSGAPGQRVTISCTGSRSNIGAGYDVHWYQQLPGTAPKLLIYGNNKRPSGVPDRFSGSKSGTSASLAITGLQAEDEADYYCQSYDSGPIFGGGTKVTVL
# B14: ADI-21065 (antibody, V domains shown)
# VH: EVQLLESGGGLVQPGGSLRLSCAASGFTFSSYAMNWVRQAPGKGLEWVSGISGSGESTYYADSVKGRFTISRDSSKNTVYLQMNSLRADDTAVYYCAKDQGYGVVVPAATRALPPRRYGMDVWGQGTTVTVSS
# VL: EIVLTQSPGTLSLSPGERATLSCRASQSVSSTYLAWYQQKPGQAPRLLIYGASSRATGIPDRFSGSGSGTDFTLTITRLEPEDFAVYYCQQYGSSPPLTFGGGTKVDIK
# Legend:
# [1] = target: RSV prefusion F (preF), DS-Cav1 stabilized trimer, subtype A (Respiratory Syncytial Virus, subtype A, UniProt P03420 26-513); test: BLI, IgG on anti-human IgG sensors, 100 nM antigen, apparent KD
# [2] = target: RSV F on RSV subtype A virus (RSV-A2) (Respiratory Syncytial Virus, subtype A, …, UniProt P03420 26-574); test: cell-based or functional assay
# [3] = target: RSV F on recombinant mKate-RSV B 18537 virus (Respiratory syncytial virus B 18537, UniProt P13843 26-574); test: cell-based or functional assay
# [4] = target: RSV F on recombinant mKate-RSV A2 virus (Respiratory syncytial virus A2, UniProt P03420 26-574); test: cell-based or functional assay
# [5] = target: T1, RSV postfusion F, subtype B (postF trimer) (Respiratory syncytial virus subtype B, UniProt P13843 26-513); test: BLI, IgG apparent affinity
# T1 construct: also called Postfusion subtype B
binder,measurement,setting,value
B1,Kd,[1],0.241 nM
same,Neutralization IC50 (RSV subtype A),[2],5.53 mg/L
B2,Neutralization IC50 (RSV subtype A),[2],0.45 mg/L
B3,Neutralization IC50 (RSV subtype A),[2],> 25 mg/L
B4,Neutralization IC50 (RSV subtype A),[2],> 25 mg/L
B5,Neut IC50 (ug/ml) subtype B,[3],0.12 µg/mL
same,Neut IC50 (ug/ml) subtype A,[4],0.03 µg/mL
same,binding result,[5],no binding
B6,Neut IC50 (ug/ml) subtype B,[3],0.33 µg/mL
same,Neut IC50 (ug/ml) subtype A,[4],0.04 µg/mL
same,binding result,[5],no binding
B7,Neut IC50 (ug/ml) subtype B,[3],0.48 µg/mL
same,Neut IC50 (ug/ml) subtype A,[4],0.03 µg/mL
same,binding result,[5],no binding
B8,Neut IC50 (ug/ml) subtype B,[3],0.06 µg/mL
same,Neut IC50 (ug/ml) subtype A,[4],0.06 µg/mL
same,binding result,[5],no binding
B9,Neut IC50 (ug/ml) subtype B,[3],0.29 µg/mL
same,Neut IC50 (ug/ml) subtype A,[4],0.2 µg/mL
same,binding result,[5],no binding
B10,Neut IC50 (ug/ml) subtype B,[3],0.32 µg/mL
same,Neut IC50 (ug/ml) subtype A,[4],0.1 µg/mL
same,binding result,[5],no binding
B11,Neut IC50 (ug/ml) subtype B,[3],0.25 µg/mL
same,Neut IC50 (ug/ml) subtype A,[4],0.09 µg/mL
same,Kd,[5],6.17 nM
B12,Neut IC50 (ug/ml) subtype B,[3],0.47 µg/mL
same,Neut IC50 (ug/ml) subtype A,[4],0.11 µg/mL
same,binding result,[5],no binding
B13,Neut IC50 (ug/ml) subtype B,[3],0.17 µg/mL
same,Neut IC50 (ug/ml) subtype A,[4],0.27 µg/mL
same,Kd,[5],3.34 nM
B14,binding result,[5],no binding
